Laboratory results as given in article PMC2835468 (Matrix biology : journal of the International Society for …, 2009).

Biological target: T1, ADAMTS5-1 (full-length human ADAMTS-5, C-terminal FLAG-tag) (human, UniProt Q9UNA0 262-930)
T1 sequence (looked up): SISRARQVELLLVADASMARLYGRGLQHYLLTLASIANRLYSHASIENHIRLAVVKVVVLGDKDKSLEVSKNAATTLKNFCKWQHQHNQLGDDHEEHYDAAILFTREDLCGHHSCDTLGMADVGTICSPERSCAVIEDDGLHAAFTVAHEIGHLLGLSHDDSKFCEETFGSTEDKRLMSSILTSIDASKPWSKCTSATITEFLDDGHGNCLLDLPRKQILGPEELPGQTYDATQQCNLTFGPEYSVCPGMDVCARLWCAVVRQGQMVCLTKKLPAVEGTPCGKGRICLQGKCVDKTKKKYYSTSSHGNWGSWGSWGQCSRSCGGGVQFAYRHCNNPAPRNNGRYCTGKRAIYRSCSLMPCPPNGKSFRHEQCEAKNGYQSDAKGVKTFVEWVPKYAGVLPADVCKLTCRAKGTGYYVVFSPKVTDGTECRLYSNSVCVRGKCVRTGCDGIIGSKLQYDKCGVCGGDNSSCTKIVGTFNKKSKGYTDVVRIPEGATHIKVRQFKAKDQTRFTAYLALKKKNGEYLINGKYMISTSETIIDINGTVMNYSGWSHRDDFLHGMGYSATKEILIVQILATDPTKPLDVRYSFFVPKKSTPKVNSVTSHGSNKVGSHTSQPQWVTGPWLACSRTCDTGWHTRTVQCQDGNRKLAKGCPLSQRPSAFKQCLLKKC
Assay: enzyme inhibition kinetics

Ki: 0.7 nM
B1: FLAG-tagged glycosylated human TIMP-3 (full-length tissue inhibitor of metalloproteinases 3), expressed in HEK293 (natural protein, UniProt P35625 24-211, looked up)
chain: CTCSPSHPQDAFCNSDIVIRAKVVGKKLVKEGPFGTLVYTIKQMKMYRGFTKMPHVQYIHTEASESLCGLKLEVNKYQYLLTGRVYDGKMYTGLCNFVERWDQLTLSQRKGLNYRYHLGCNCKIKSCYYLPCFVTSKNECLWTDMLSNFGYPGYQSKHYACIRQKGGYCSWYRGWAPPDKSIINATDP
modifications: glycosylated (only the 27 kDa glycosylated form remained after purification; single N-glycosylation site in the C-terminal domain)
